Drawing on patent publication US20250084183A1, this text covers Kd for 1 substance.

The assay concerns the target CD99 on RD-ES and SK-ES-1 Ewing sarcoma cells (UniProt P14209). The assay can be described thus: not stated (given with the antibody's description, refers to FIG. 57).

As a reminder, the Kd is the equilibrium constant for the complex coming apart. Low readings indicate tighter binding, high ones weaker binding. As to αCD99 antibody (clone: 12E7), the Kd turned out to be 10 nM.
